Reference: patent publication US20100254993A1 (Novartis, published 2010)

T1: recombinant human interleukin-4 (human, UniProt P05112 25-153)
T1 sequence (looked up): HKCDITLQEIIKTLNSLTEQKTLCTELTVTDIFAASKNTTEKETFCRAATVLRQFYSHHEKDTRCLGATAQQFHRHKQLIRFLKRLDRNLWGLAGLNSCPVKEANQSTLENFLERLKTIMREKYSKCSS


How the values were obtained:
[1] = biological target: T1, recombinant human interleukin-4; assay: cell-based or functional assay
[2] = biological target: T1, recombinant human interleukin-4; assay: SPR (BIAcore 2000), mAb captured on anti-human IgG CM-5 chip, rhIL-4 as analyte
Procedure: Affinity measurements of human mAbs of the present invention are carried on a BIAcore™ 2000 instrument. […] A subsequent application of rhIL-4 results in a further change of the refractory properties, which allows determination of the association rate (Kₒₙ, on rate) as well as the dissociation rate (Koff, off rate) and the […] of these two, the affinity (Kd, dissociation constant, given in pM), according to the BIAevaluation 3.0 software.

Row | Binder | BAF cell proliferation IC50 [1] [nM] | IL-4 induced CD23 IC50 [1] [nM] | IL-4 induced IgE IC50 [1] [nM] | Kd [2] [nM]
1 | Example 3 antibody comprising SEQ ID NO:17 and SEQ ID NO:18 (antibody, human IgG1, V domains shown, also called Ex. 3) VH: QVQLVESGGGMVQPGRSLRLSCAASGFTLSSYGMHWVRQAPGKGLEWVTVIWYDGNNQYYADSVKGRFTISRDNSKNTLYLQMNSLRAEDTAVYYCAREGSWSPDIFDIWGQGTMVTVSS VL: AIQLTQSPSSLSASVGDRVTITCRASQGISSYLAWYQQKPGKAPKLLIYDASSLESGVPSRFSGSGSGTDFTLTISSLQPEDFATYYCQQFNSYPITFGQGTRLEIKR | 0.084 | 0.873 | 7.81 | 0.089
2 | Example 5 antibody comprising SEQ ID NO:33 and SEQ ID NO:34 (antibody, human IgG1, V domains shown, also called Ex. 5) VH: QVQLVESGGGVVQPGRSLRLSCAASGFTFSCCGMHWVRQAPGKGLEWVAVIWYDGSNKYYADSVKGRFTISRDTSKNTLYLQMNSLRAEDTAVYYCATDSSGSFYEYFQHWGQGTLVTVSS VL: AIQLTQSPSSLSASVGDRVTITCRASQGINSALAWYQQKPGKAPKLLIYDASSLESGVPSRFSGSGSGTDFTLTISSLQPEDFATYYCQQFNSYPYTFGQGTKLEIKR | 0.218 | 2.83 | 9.94 | 0.084
3 | Example 2 antibody comprising SEQ ID NO:9 and SEQ ID NO:10 (antibody, human IgG1, V domains shown, also called Ex. 2) VH: QVQLVESGGGVVQPGRSLRLSCAASGFTLSSFGMHWVRQAPGKGLEWVAVIWYDGSNEYYADSVKGRFTTSRDNSKNTLYLQMNSLRAEDTAVYYCAREGSWSPDIFDIWGQGTMVTVSS VL: AIQLTQSPSSLSASVGDRVTITCRTSQGIRSALAWYQQNPGKAPKLLIYDASSLESGVPSRFSGSGSGTDFTLTISSLQPEDFATYYCQQFNSYPVTFGQGTRLEIKR | 0.05 | 0.463 | 5.34 | 0.059

Further binders by falling Kd [2], results first:

Row | BAF cell proliferation IC50 [1] [nM] | IL-4 induced CD23 IC50 [1] [nM] | IL-4 induced IgE IC50 [1] [nM] | Kd [2] [nM] | Binder
4 | 0.688 | 0.848 | 7.57 | 0.066 | Example 4 antibody comprising SEQ ID NO:25 and SEQ ID NO:26 (antibody, human IgG1, V domains shown, also called Ex. 4) VH: QVQLVQSGAEVKKPGSSVKVSCKASGDTFSSYAISWVRQAPGQGFEWMGGIIPVIGTVNYEERFQDRVTITADNSTSTAYMELTSLRSEDTAVYFCGREEGFLDYWGQGTLVTVSS VL: AIQLTQSPSSLSASVGDRVTITCRASQGISSALAWYQQKPGKAPKLLIYDASSLESGVPSRFSGSGSGTDFTLTISSLQPEDFATYYCQQFNSYPLLTFGGGTKVEIKR
5 | 0.03 | 0.334 | 2.81 | 0.043 | Example 1 antibody comprising SEQ ID NO:1 and SEQ ID NO:2 (human IL-4 specific monoclonal antibody) (antibody, human IgG1, V domains shown, also called Ex. 1; mAb as defined by CDRs as described in claim 2a)) VH: QVQLVESGGGVVQPGRSLRLSCAASGFTFSSYAMHWVRQAPGKGLEWVTFIWDDGSFKYYAESVKGRFTISRDNSKNTLYLQMNSLRAEDTAVYYCAREGSWSPDIFDIWGQGTMVTVSS VL: AIQLTQSPSSLSASVGDRVTITCRASQGISRALAWYQQKPGKAPKLLIYDASSLESGVPSRFSGSGSGTDFTLTISSLQPEDFATYYCQQFNSYPITFGQGTRLEIKR
